Article PMC7697101
No end group written: not given here.

Biological target: formyl peptide receptor 2 (Fpr2/ALX), murine (mouse (endogenous in C57BL/6 and STM mice)) (UniProt O88536)
Chain of UniProt O88536 (O88536 whole entry): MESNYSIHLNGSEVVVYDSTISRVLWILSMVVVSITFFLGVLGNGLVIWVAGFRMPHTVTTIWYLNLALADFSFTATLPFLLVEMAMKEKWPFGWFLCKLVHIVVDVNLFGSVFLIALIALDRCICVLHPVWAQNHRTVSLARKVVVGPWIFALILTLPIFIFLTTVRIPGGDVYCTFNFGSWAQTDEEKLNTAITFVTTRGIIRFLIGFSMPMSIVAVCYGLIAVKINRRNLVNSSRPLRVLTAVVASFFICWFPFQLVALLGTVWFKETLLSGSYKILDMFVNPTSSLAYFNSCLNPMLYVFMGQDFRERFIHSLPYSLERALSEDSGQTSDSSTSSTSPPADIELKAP

B1: AnxA1 mimetic peptide AnxA1_(Ac2-26) (peptide)
peptide: Ac-AMVSEFLKQAWFIENEEQEYVQTVK
increase in blood flow (cessation time) in cerebral venules of sickle cell transgenic mice given AnxA1 (Ac2-26) 4 mg/kg vs. saline, light/dye thrombosis; mitigated by co-administration of Boc2 or WRW4: 63.5%
